In patent publication US20240279344A1 (CDR LIFE, published 2024) one finds Kd data, which are given here for 45 molecules.

First the molecules themselves.
B1: M1109 (bispecific antibody, V domains shown)
VH: EVQLLESGGGSVQPGGSLRLSCTVSGFSLSNYAMSWVRQAPGKGLEWIGIVSSGGTTYYASWAKGRFTISKDTSKNTVYLQMNSLRAEDTASYYCAKDLYYAPTTYSAFNLWGQGTSVTVSS
VL: SYELTQPPSVSVSPGQTASITCTADTLSRSYASWYQQKPGQSPVLVIYRDTSRPSGIPERFSGSNSGNTATLTISGTQAMDEADYYCATRPSSGSNFQLFGGGTKLTVL
notes: Variant of humanized M0763; tested in SPR as anti-CD3 Fab x anti-MAGE-A4 scFv bispecific
B2: M1112 (bispecific antibody, V domains shown)
VH: B1 VH with A102G, T105A
VL: B1 VL
notes: as for B1
B3: M1138 (bispecific antibody, V domains shown)
VH: B1 VH with Y58A, A102G
VL: B1 VL
notes: as for B1
B4: M1111 (bispecific antibody, V domains shown)
VH: B1 VH with A102G, T104A
VL: B1 VL
notes: as for B1
B5: M1171 (bispecific antibody, V domains shown)
VH: B1 VH with A102G, F109L
VL: B1 VL
notes: as for B1
B6: M1115 (bispecific antibody, V domains shown)
VH: B1 VH with A102G, A108S
VL: B1 VL
notes: as for B1
B7: M1297 (bispecific antibody, V domains shown)
VH: B1 VH with A102G, T104S, S107F, A108V, F109A
VL: B1 VL
notes: as for B1
B8: M1176 (bispecific antibody, V domains shown)
VH: B1 VH with A102G, F109A
VL: B1 VL with N96V
notes: as for B1
B9: M1123 (bispecific antibody, V domains shown)
VH: B1 VH with A102G
VL: B1 VL with S93A
notes: as for B1
B10: M1133 (bispecific antibody, V domains shown)
VH: B1 VH with S53A, A102G
VL: B1 VL
notes: as for B1
B11: M1142 (bispecific antibody, V domains shown)
VH: B1 VH with W62A, A102G
VL: B1 VL
notes: as for B1
B12: M1144 (bispecific antibody, V domains shown)
VH: B1 VH with K64A, A102G
VL: B1 VL
notes: as for B1
B13: M1134 (bispecific antibody, V domains shown)
VH: B1 VH with G54A, A102G
VL: B1 VL
notes: as for B1
B14: M1110 (bispecific antibody, V domains shown)
VH: B1 VH with A102G, P103A
VL: B1 VL
notes: as for B1
B15: M1202 (bispecific antibody, V domains shown)
VH: B1 VH with A102G, A108S, F109A
VL: B1 VL
notes: as for B1
B16: M1172 (bispecific antibody, V domains shown)
VH: B1 VH with A102G, F109P
VL: B1 VL
notes: as for B1
B17: M1117 (bispecific antibody, V domains shown)
VH: B1 VH with A102G, N110A
VL: B1 VL
notes: as for B1
B18: M1132 (bispecific antibody, V domains shown)
VH: B1 VH with S52A, A102G
VL: B1 VL
notes: as for B1
B19: M1124 (bispecific antibody, V domains shown)
VH: B1 VH with A102G
VL: B1 VL with G94A
notes: as for B1
B20: M1119 (bispecific antibody, V domains shown)
VH: B1 VH with A102G
VL: B1 VL with A88S
notes: as for B1
B21: M1169 (bispecific antibody, V domains shown)
VH: B1 VH with A102G, F109A
VL: B1 VL with Q98V
notes: as for B1
B22: M1143 (bispecific antibody, V domains shown)
VH: B1 VH with A63S, A102G
VL: B1 VL
notes: as for B1
B23: M1139 (bispecific antibody, V domains shown)
VH: B1 VH with Y59A, A102G
VL: B1 VL
notes: as for B1
B24: M1131 (bispecific antibody, V domains shown)
VH: B1 VH with V51A, A102G
VL: B1 VL
notes: as for B1
B25: M1135 (bispecific antibody, V domains shown)
VH: B1 VH with G55A, A102G
VL: B1 VL
notes: as for B1
B26: M1141 (bispecific antibody, V domains shown)
VH: B1 VH with S61A, A102G
VL: B1 VL
notes: as for B1
B27: M1113 (bispecific antibody, V domains shown)
VH: B1 VH with A102G, Y106A
VL: B1 VL
notes: as for B1
B28: M1177 (bispecific antibody, V domains shown)
VH: B1 VH with A102G, F109A
VL: B1 VL with F97T, Q98V, L99V
notes: as for B1
B29: M1130 (bispecific antibody, V domains shown)
VH: B1 VH with I50A, A102G
VL: B1 VL
notes: as for B1
B30: M1122 (bispecific antibody, V domains shown)
VH: B1 VH with A102G
VL: B1 VL with P91A
notes: as for B1
B31: M1137 (bispecific antibody, V domains shown)
VH: B1 VH with T57A, A102G
VL: B1 VL
notes: as for B1
B32: M1136 (bispecific antibody, V domains shown)
VH: B1 VH with T56A, A102G
VL: B1 VL
notes: as for B1
B33: M1298 (bispecific antibody, V domains shown)
VH: B1 VH with A102G, F109A
VL: B1 VL with S92W, S93P
notes: as for B1
B34: M1253 (bispecific antibody, V domains shown)
VH: B1 VH with A102G, F109A
VL: B1 VL with L99A
notes: as for B1
B35: M1127 (bispecific antibody, V domains shown)
VH: B1 VH with A102G
VL: B1 VL with F97A
notes: as for B1
B36: M1120 (bispecific antibody, V domains shown)
VH: B1 VH with A102G
VL: B1 VL with T89A
notes: as for B1
B37: M1114 (bispecific antibody, V domains shown)
VH: B1 VH with A102G, S107A
VL: B1 VL
notes: as for B1
B38: M1140 (bispecific antibody, V domains shown)
VH: B1 VH with A60S, A102G
VL: B1 VL
notes: as for B1
B39: M1299 (bispecific antibody, V domains shown)
VH: B1 VH with A102G, F109A
VL: B1 VL with S92F, S93P
notes: as for B1
B40: M1178 (bispecific antibody, V domains shown)
VH: B1 VH with A102G, F109A
VL: B1 VL with A88Q, T89A
notes: as for B1
B41: M1121 (bispecific antibody, V domains shown)
VH: B1 VH with A102G
VL: B1 VL with R90A
notes: as for B1
B42: M1128 (bispecific antibody, V domains shown)
VH: B1 VH with A102G
VL: B1 VL with Q98A
notes: as for B1
B43: M1145 (bispecific antibody, V domains shown)
VH: B1 VH with G65A, A102G
VL: B1 VL
notes: as for B1
B44: M1129 (bispecific antibody, V domains shown)
VH: B1 VH with A102G
VL: B1 VL with L99A
notes: as for B1
B45: M1125 (bispecific antibody, V domains shown)
VH: B1 VH with A102G
VL: B1 VL with S95A
notes: as for B1

Residue numbers refer to the chain shown, from its start.

In this experiment the target is T1, HLA-A2/MAGE-A4 complex, recombinant (HLA-A*02:01 extracellular domain, human b2m, MAGE-A4 peptide 230-239 …) (human, UniProt P04439 25-299 at identity 0.94); P61769 21-119).
T1 construct: also called MAGE-A4 pMHC; MAGE-A4/HLA-A2 complex
In words: SPR, monovalent. (In SPR one partner is held on a chip, and binding of the other changes the refractive index at the surface.)
As to B1, the Kd (commonly the equilibrium constant for the complex coming apart) came to 11.7 nM. In the case of B2, the Kd was 35.9 nM. Next, B3: 3.1 nM; B4: 0.65 nM. Under B5 stands 4.4 nM; under B6, 0.48 nM; under B7, 0.09 nM. Next, B8: 6 nM. As for B9, the Kd is 0.79 nM. Next, B10: 12.4 nM; B11: 2.9 nM; B12: 2.3 nM. Next, B13: 4.2 nM; B14: 9.65 nM; B15: 3.9 nM. Next, B16: 1.5 nM. B17: the dissociation constant (Kd) worked out at 4.2 nM. As to B18, the equilibrium dissociation constant (Kd) came out at 4.1 nM. With B19, the Kd was determined as 0.65 nM.

For the molecule B20, the Kd was 0.91 nM.

In the case of B21, the Kd is 3.2 nM.

For the molecule B22, the Kd was determined as 2.4 nM. Under B23 stands 2.1 nM; under B24, 3.2 nM.

B25: the Kd amounted to 2.4 nM. Under B26 stands 1.2 nM. Under B27 stands 15.3 nM. Next, B28: 4.2 nM; B29: 2.2 nM. Turning to B30, the Kd was found to be 0.75 nM. Next, B31: 2.2 nM; B32: 2.7 nM.

For B33, the dissociation constant (Kd) turned out to be 0.07 nM. Next, B34: 2.55 nM; B35: 0.89 nM. Next, B36: 1.21 nM. Turning to B37, the Kd is 1.18 nM. Under B38 stands 2.8 nM. Next, B39: 0.05 nM; B40: 8.3 nM. Regarding B41, the Kd is 6.53 nM.

With B42, the Kd is 1.32 nM. B43: the Kd was 2.1 nM. Under B44 stands 0.46 nM.

As for B45, the Kd is 0.89 nM.
